Laboratory results published in paper PMC4056859.

Tests used:
[1] = target: ht-ADH single-tryptophan variant W87in (W49F:W167Y) (Bacillus stearothermophilus); assay: SEC
[2] = target: ht-ADH single-tryptophan variant W167in (W49F:W87F) (Bacillus stearothermophilus); assay: SEC

Row | Substance | stoichiometry N [1] | stoichiometry N [2]
1 | ht-ADH single-tryptophan variant W87in (W49F:W167Y) (enzyme) | 4 | –
2 | ht-ADH single-tryptophan variant W167in (W49F:W87F) (enzyme) | – | 4
